Assay [1] concerns the target T1, eIF4A (Saccharomyces cerevisiae, UniProt P10081).
T1 sequence (P10081 1-395): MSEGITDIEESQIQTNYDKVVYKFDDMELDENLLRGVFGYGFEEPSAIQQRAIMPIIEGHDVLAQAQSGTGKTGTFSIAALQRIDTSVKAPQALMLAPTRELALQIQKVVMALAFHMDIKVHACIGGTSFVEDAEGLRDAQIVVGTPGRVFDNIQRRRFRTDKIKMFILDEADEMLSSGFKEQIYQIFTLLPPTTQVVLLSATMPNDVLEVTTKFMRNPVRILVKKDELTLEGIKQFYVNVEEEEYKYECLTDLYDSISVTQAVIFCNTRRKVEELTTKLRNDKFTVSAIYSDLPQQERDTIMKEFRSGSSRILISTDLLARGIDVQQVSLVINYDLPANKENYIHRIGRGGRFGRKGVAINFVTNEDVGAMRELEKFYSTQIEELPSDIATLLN
The experiment in a line: competitive titration of the mantADP/protein complex, or ITC. The assay is classed as binding. As to conditions: pH 7.5, 80 mM KCl, Mg2+; without eIF4G.

Assay [2] concerns the target T2, eIF4A/eIF4G_mid complex (Saccharomyces cerevisiae, UniProt P10081).
T2 sequence (P10081 1-395): T1 sequence (P10081 1-395)
T2 sequence (P39935 572-853 K590R partner): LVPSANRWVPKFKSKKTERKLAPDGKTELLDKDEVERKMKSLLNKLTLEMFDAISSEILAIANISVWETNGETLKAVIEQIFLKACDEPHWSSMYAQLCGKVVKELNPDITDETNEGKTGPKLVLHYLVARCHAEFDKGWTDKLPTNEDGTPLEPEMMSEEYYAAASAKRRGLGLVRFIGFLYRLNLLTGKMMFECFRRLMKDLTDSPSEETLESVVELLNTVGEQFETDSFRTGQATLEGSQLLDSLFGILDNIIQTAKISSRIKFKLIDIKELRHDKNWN
The assay is described as above. The assay is classed as binding. Conditions: pH 7.5, 80 mM KCl, Mg2+; eIF4G_mid present.

Assay [3] concerns the target T2, eIF4A/eIF4G_mid complex. The experiment in a line: ITC or competitive titration. Format: binding. As to conditions: pH 7.5, 80 mM KCl, Mg2+; eIF4G_mid present.
Assay [4] concerns the target T1, eIF4A. The experiment in a line: ITC or competitive titration. As to conditions: pH 7.5, 80 mM KCl, Mg2+; without eIF4G. Format: binding.
In assay [5] the target is eIF4G_mid (aa 572–853 of eIF4G, middle domain) (yeast) (UniProt P39935). The experiment in a line: ITC. (In general: In ITC the heat of successive injections is recorded.)
The target of assay [6] is T3, eukaryotic translation initiation factor 4A (eIF4A) (yeast, UniProt P10081 1-395).
T3 sequence (looked up): T1 sequence (P10081 1-395)
The assay is described as follows: ITC.

A further assay concerns the target T4, eIF4A_E43R (yeast, UniProt P10081 1-395, E43R).
T4 sequence (looked up): T1 sequence (P10081 1-395) with E43R
The experiment in a line: ITC.

Substitutions are numbered along the chain they refer to. In names and notes the source's numbering stands.

One may read the Kd as a measure of binding affinity in units of concentration. Lower therefore signals tighter binding. Turning to `Nc1ncnc2c1ncn2[C@@H]1O[C@H](COP(=O)(O)OP(=O)(O)O)[C@@H](O)[C@H]1O` [ADP], the Kd result on eIF4A [1] was “the affinity of eIF4A for ADP and ATP is moderately decreased in the presence of eIF4G”; at eIF4A/eIF4G_mid complex [2] it was “the affinity of eIF4A for ADP and ATP is moderately decreased in the presence of eIF4G”. On to `Nc1ncnc2c1ncn2[C@@H]1O[C@H](COP(=O)(O)OP(=O)(O)OP(=O)(O)O)[C@@H](O)[C@H]1O` [ATP], for which the Kd result on eIF4A/eIF4G_mid complex [3] is “the affinity of eIF4A for ADP and ATP is moderately decreased in the presence of eIF4G”; at eIF4A [4] it was “the affinity of eIF4A for ADP and ATP is moderately decreased in the presence of eIF4G”.

In assay [5], “eIF4A-RecA_C (aa 226-406) (domain or fragment)” showed a Kd of 1.3 µM.

B1: eIF4G_K831E/S834D/R835E (domain or fragment, yeast, UniProt P39935 572-853, looked up)
chain: T2 sequence (P39935 572-853 K590R partner) with K260E, S263D, R264E
In assay [6], B1 had a Kd of 1.1 ± 0.1 µM.

B2: eIF4G_mid (aa 572–853 of eIF4G, middle domain) (domain or fragment, yeast, UniProt P39935 572-853, looked up)
chain: T2 sequence (P39935 572-853 K590R partner)
With B2, the Kd came to 0.6 ± 0.1 µM in assay [6] and 0.2 ± 0.02 µM with eIF4A_E43R.

B3: eIF4G_R835E (domain or fragment, yeast, UniProt P39935 572-853, looked up)
chain: T2 sequence (P39935 572-853 K590R partner) with R264E
As to B3, the Kd in assay [6] came out at 1 ± 0.1 µM.

The values above are taken from PMC3064780 (Nucleic Acids Research, 2010).
